Assay results published in patent US20160138049A1, “OXYGEN-TOLERANT CoA-ACETYLATING [sequence] DEHYDROGENASE CONTAINING PATHWAY FOR BIOFUEL PRODUCTION” (The Regents of the University of California, priority 2013, published 2016).

T1: Lactobacillus brevis PduP, CoA-acylating propionaldehyde dehydrogenase (PduP_L.bre, YP_795711, SEQ ID NO:47 and 48), poly-His6 tagged (Levilactobacillus brevis, UniProt Q03Q42)
T1 sequence (Q03Q42 1-477): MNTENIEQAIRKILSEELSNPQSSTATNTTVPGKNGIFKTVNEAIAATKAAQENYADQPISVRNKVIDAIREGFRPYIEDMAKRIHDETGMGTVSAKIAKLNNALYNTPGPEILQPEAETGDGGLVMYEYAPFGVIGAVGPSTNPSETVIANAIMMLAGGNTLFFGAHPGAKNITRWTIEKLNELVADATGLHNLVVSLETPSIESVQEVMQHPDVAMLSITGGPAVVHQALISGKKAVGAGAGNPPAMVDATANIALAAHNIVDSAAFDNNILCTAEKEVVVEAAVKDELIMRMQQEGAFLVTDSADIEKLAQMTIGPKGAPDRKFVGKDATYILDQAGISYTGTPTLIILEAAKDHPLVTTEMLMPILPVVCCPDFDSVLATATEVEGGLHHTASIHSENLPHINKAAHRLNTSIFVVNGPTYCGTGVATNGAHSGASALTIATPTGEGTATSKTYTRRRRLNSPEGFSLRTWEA


Columns and labels:
[1] = tested on: CC(=O)SCCNC(=O)CCNC(=O)[C@H](O)C(C)(C)COP(=O)(O)OP(=O)(O)OC[C@H]1O[C@@H](n2cnc3c(N)ncnc32)[C@H](O)[C@@H]1OP(=O)(O)O; experiment: purified protein, by the assay type; conditions: other: pH 7.15, 30° C., 500 μM NADH, 1 mM DTT, acyl-CoA 0.03 mM to 2 mM
Method: (§5) Enzyme assays were conducted by using Bio-Tek PowerWave XS microplate spectrophotometer. CoA-acylating aldehyde dehydrogenase activity was measured by the decrease of absorbance at 340 nm, corresponding to depletion of NADH. […] The addition of the acyl-CoA initiated the reaction. kcat and Km were determined by nonlinear regression fitting to Michaelis-Menten equation using graphing software Origin.

[2] = tested on: CCCC(=O)SCCNC(=O)CCNC(=O)[C@H](O)C(C)(C)COP(=O)(O)OP(=O)(O)OC[C@H]1O[C@@H](n2cnc3c(N)ncnc32)[C@H](O)[C@@H]1OP(=O)(O)O; experiment: purified protein, by the assay type; conditions: other: pH 7.15, 30° C., 500 μM NADH, 1 mM DTT, acyl-CoA 0.03 mM to 2 mM
Method: as §5

[3] = molecular target: T1, Lactobacillus brevis PduP, CoA-acylating propionaldehyde dehydrogenase (PduP_L.bre, YP_795711, SEQ ID NO:47 and 48), poly-His6 tagged; experiment: Kinetic parameters of PduP (CoA-acylating aldehyde dehydrogenase), NADH depletion at 340 nm; assay type: biochemical
Method: (§1) Protein purification was done by using His-Spin Protein miniprep purification kit from Zymo following manufacturer's manual. Overnight culture of E. coli strain BL-21(DE3) harboring different pCDF-pdup plasmid was used to inoculate fresh 20 ml LB. The newly inoculated culture was incubated at 37° C. until OD600 nm reaches 0.6 which was then induced with 1 mM IPTG. The induced cultures were then incubated overnight in 30° C. rotary shaker to allow protein expression. The cultures were then harvested by centrifugation at 4,300×g for 20 min. The pellet was then resuspended with 1 mL of Zymo His-binding buffer and mixed with 1 mL of 0.1 mm glass beads (Biospec). The sample was then homogenated using TissueLyser II (Quiagen).
(§2) Enzyme assays were conducted by using Bio-Tek PowerWave XS microplate spectrophotometer. CoA-acylating aldehyde dehydrogenase activity was measured by the decrease of absorbance at 340 nm, corresponding to depletion of NADH. […] For determining specific activity for other chain length acyl-CoA, 500 μM was used. The mixture excluding acyl-CoA was incubated for 5 minutes at 30° C. The addition of the acyl-CoA initiated the reaction. kcat and Km were determined by nonlinear regression fitting to Michaelis-Menten equation using graphing software Origin.
(§3) To characterize these PduP homologues, plasmids harboring individual pduP genes were constructed with a poly-His6 tag (plasmids pCDF-pduP_ahyd, pCDF-pdup_kpne, pCDF-pdup_lbre, pCDF-pdup_lmon, pCDF-pdup_sent, and pCDF-pdup_pgin). PduP homologues were then purified under aerobic condition without cleaving off His tags. The activities of the enzymes were determined using acyl-CoA with different chain lengths, and the disappearance of NADH was monitored.
(§4) The efficiency of these PduP homologues were assessed.

[4] = molecular target: Klebsiella pneumoniae PduP, CoA-acylating propionaldehyde dehydrogenase (PduP_K.pne, YP_001336844, SEQ ID NO:45 and 46), poly-His6 tagged (Klebsiella pneumoniae, UniProt A0ACD7U6D7); experiment: as above
Klebsiella pneumoniae PduP, CoA-acylating propionaldehyde dehydrogenase (PduP_K.pne, YP_001336844, SEQ ID NO:45 and 46), poly-His6 tagged, sequence (A0ACD7U6D7 entry or part of it): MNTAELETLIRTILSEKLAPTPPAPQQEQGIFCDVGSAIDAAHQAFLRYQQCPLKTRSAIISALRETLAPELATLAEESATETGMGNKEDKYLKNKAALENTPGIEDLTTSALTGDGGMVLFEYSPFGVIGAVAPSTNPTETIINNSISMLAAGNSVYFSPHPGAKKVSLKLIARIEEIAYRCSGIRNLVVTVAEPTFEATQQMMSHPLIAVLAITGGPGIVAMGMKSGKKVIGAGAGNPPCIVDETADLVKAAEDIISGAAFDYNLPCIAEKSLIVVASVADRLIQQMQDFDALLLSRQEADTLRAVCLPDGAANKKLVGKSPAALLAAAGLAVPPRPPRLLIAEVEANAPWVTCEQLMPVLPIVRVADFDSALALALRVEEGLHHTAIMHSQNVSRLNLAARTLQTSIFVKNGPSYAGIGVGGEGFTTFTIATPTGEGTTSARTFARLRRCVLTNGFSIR
Method: as §1, §2, §3, §4

[5] = molecular target: Listeria monocytigenes PduP, CoA-acylating propionaldehyde dehydrogenase (PduP_L.mon, NP_464690, SEQ ID NO:49 and 50), poly-His6 tagged (Listeria monocytogenes, UniProt Q8Y7V4); experiment: as above
Method: as §1, §2, §3, §4

[6] = molecular target: Porphyromonas gingivalis PduP, CoA-acylating propionaldehyde dehydrogenase (PduP_P.gin, YP_001928839, SEQ ID NO:51 and 52), poly-His6 tagged (Porphyromonas gingivalis, UniProt B2RIP7); experiment: as above
Method: as §1, §2, §3, §4

[7] = molecular target: Salmonella enterica PduP, CoA-acylating propionaldehyde dehydrogenase (PduP_S.ent, AAD39015, SEQ ID NO:33 and 34), poly-His6 tagged (Salmonella enterica, UniProt Q9XDN1); experiment: as above
Method: as §1, §2, §3, §4

[8] = CoA-acylating aldehyde dehydrogenase (PduP) assay, butyryl-CoA reduction; assay type: biochemical; conditions: purified under aerobic condition; 500 μM NADH, 1 mM DTT, pH 7.15, 30° C.
Method: as §1, §2, §3, §4

[9] = Substrate chain length specificity of PduP; assay type: biochemical; conditions: acyl-CoA chain lengths C2 to C12
Method: FIG. 3A-B Substrate chain length specificity of CoA-acylating aldehyde dehydrogenases, PduP. A) Specific activity of different PduP (pmol min^−1 mg^−1). B) Relative activity of PduP. Specific activity was determined with substrate concentration of 1 mM acyl-CoA, 500 uM NADH, 1 mM DTT in 50 mM potassium phosphate buffer at pH 7.15 at 30° C.
as §2, §3

[10] = kcat/Km butyryl-CoA over kcat/Km acetyl-CoA
[11] = pH 7.15, 30° C., 500 μM NADH, 1 mM DTT, acyl-CoA 0.03 mM to 2 mM

Molecule | Km [1] [µM] | Km [2] [µM] | Specific activity for butyryl-CoA reduction [8] [µmol/min/mg] | Acyl-CoA substrate favoured (highest specific activity) [9] | also measured
Klebsiella pneumoniae PduP, CoA-acylating propionaldehyde dehydrogenase (PduP_K.pne, YP_001336844, SEQ ID NO:45 and 46), poly-His6 tagged (Klebsiella pneumoniae subsp. pneumoniae NTUH-K2044) | 181.4 ± 25.1 | 56.0 ± 25.9 |  |  | 
Porphyromonas gingivalis PduP, CoA-acylating propionaldehyde dehydrogenase (PduP_P.gin, YP_001928839, SEQ ID NO:51 and 52), poly-His6 tagged (Porphyromonas gingivalis ATCC 33277) | 75.9 ± 25.1 | 256.0 ± 40.5 |  |  | 
Salmonella enterica PduP, CoA-acylating propionaldehyde dehydrogenase (PduP_S.ent, AAD39015, SEQ ID NO:33 and 34), poly-His6 tagged (Salmonella enterica subsp. enterica serovar Typhimurium str. LT2) | 342.1 ± 94.8 | 87.0 ± 24.8 |  |  | 
CCCC(=O)SCCNC(=O)CCNC(=O)[C@H](O)C(C)(C)COP(=O)(O)OP(=O)(O)OC[C@H]1O[C@@H](n2cnc3c(N)ncnc32)[C@H](O)[C@@H]1OP(=O)(O)O [Butyryl-CoA, butyryl-CoA] |  |  |  |  | Ratio C4:C2 (butyryl-CoA to acetyl-CoA catalytic efficiency ratio) [3, 10]: 2; kcat [3, 11]: 3.37 ± 0.19 s⁻¹; Ratio C4:C2 (butyryl-CoA to acetyl-CoA catalytic efficiency ratio) [4, 10]: 5; kcat [4, 11]: 7.02 ± 0.64 s⁻¹; Ratio C4:C2 (butyryl-CoA to acetyl-CoA catalytic efficiency ratio) [5, 10]: 1.4; kcat [5, 11]: 11.99 ± 1.56 s⁻¹; Ratio C4:C2 (butyryl-CoA to acetyl-CoA catalytic efficiency ratio) [6, 10]: 0.6; kcat [6, 11]: 0.19 ± 0.02 s⁻¹; Ratio C4:C2 (butyryl-CoA to acetyl-CoA catalytic efficiency ratio) [7, 10]: 6.8; kcat [7, 11]: 25.38 ± 1.81 s⁻¹
Listeria monocytigenes PduP, CoA-acylating propionaldehyde dehydrogenase (PduP_L.mon, NP_464690, SEQ ID NO:49 and 50), poly-His6 tagged (Listeria monocytogenes EGD-e) | 92.6 ± 20.1 | 71.7 ± 20.3 |  |  | 
A. hyd: PduP homologue from Aeromonas hydrophila, YP_855873; SEQ ID NO:43 and 44 (protein, listed as Aeromonas hydrophila) MLSRQNARELVRNAKQAQVIMATFSQQKIDAIVKNVAEEAARHAETLAKMAAEETGFGNWQDKVLKNRFASLHVYDAIKEMKTVGIIHDDQAKKVMDVGVPLGVICALVPSTNPTSTIFYKTLIALKAGNAIIFSPHPGARQCSWKAIEIVKRAAEAAGAPAGIVDGVTQLTLEATSELMHSKDVSLILATGGEGMVRAAYASGTPTISGGPGNGPAFIERSADIHQAVKDIITSKTFDNGVICASEQSIIVERCIYDEVHRELAAQGAYFMNEDEAARMAALLLRPNGTINPKVVGKTALHLSQLAGFSVPPSTRVLVAEQTTVSHSNPYSREKLCPVLGLYVEEEWRAACHRVVELLTNEGLGHTLVIHTRNQDVIRQFSLEKPVNRILINTPAALGGIGATTNLTPALTLGCGAVGGGSSSDNVGPMNLLNIRKVGYGVRTIEELRAPIQPVAVQPASAAPTAPQPCSILDDARFSAPAPACHSADDRFAGASAEVGGEISEQNVERVIRQVLERLGK |  |  | 1.7 ± 0.6 |  | 
L. mon: PduP homologue from Listeria monocytigenes, NP_464690; SEQ ID NO:49 and 50 (protein, Listeria monocytogenes) MESLELEKLVKKVLLEKLAEQKGIPVKTMTKGAKSGVFDTVDEAVQAAVIAQNSYKEKSLEERRNVVKAIREALYPEIESIAARAVAETGMGNVADKILKNTLAIEKTPGVEDLYTEVATGDNGMTLYELSPYGVIGAVAPSTNPTETLICNTIGMLAAGNAVFYSPHPGAKNISLWLIEKLNTIVRESCGVDNLVVTVEKPSIQAAQEMMNHPKVPLLVITGGPGVVLQAMQSGKKVIGAGAGNPPSIVDETANIEKAAADIVDGASFDHNILCIAEKSVVAVDSIADFLMFQMEKNGALHVTNPSDIQKLEKVAVTDKGVTNKKLVGKSASEILKEAGIACDFSPRLIIVETEKTHPFATVELLMPIVPVVRVPNFEEALEVAIELEQGLHHTATMHSQNISRLNKAARDMQTSIFVKNGPSFAGLGFRGEGSTTFTIATPTGEGTTTARHFARRRRCVLTDGFSIR |  |  | 17 ± 2 | highest for propionyl-CoA reduction | 
S. ent: CoA-acylating propionaldehyde dehydrogenase (PduP) from Salmonella enterica, AAD39015; SEQ ID NO:33 and 34 (protein, listed as Salmonella enterica) MNTSELETLIRTILSEQLTTPAQTPVQPQGKGIFQSVSEAIDAAHQAFLRYQQCPLKTRSAIISAMRQELTPLLAPLAEESANETGMGNKEDKFLKNKAALDNTPGVEDLTTTALTGDGGMVLFEYSPFGVIGSVAPSTNPTETIINNSISMLAAGNSIYFSPHPGAKKVSLKLISLIEEIAFRCCGIRNLVVTVAEPTFEATQQMMAHPRIAVLAITGGPGIVAMGMKSGKKVIGAGAGNPPCIVDETADLVKAAEDIINGASFDYNLPCIAEKSLIVVESVAERLVQQMQTFGALLLSPADTDKLRAVCLPEGQANKKLVGKSPSAMLEAAGIAVPAKAPRLLIALVNADDPWVTSEQLMPMLPVVKVSDFDSALALALKVEEGLHHTAIMHSQNVSRLNLAARTLQTSIFVKNGPSYAGIGVGGEGFTTFTIATPTGEGTTSARTFARSRRCVLTNGFSIR |  |  | 27 ± 14 | highest for propionyl-CoA reduction | 
P. gin: PduP homologue from Porphyromonas gingivalis, YP_001928839; SEQ ID NO:51 and 52 (protein, listed as Porphyromonas gingivalis) MEIKEMVSLARKAQKEYQATHNQEAVDNICRAAAKVIYENAAILAREAVDETGMGVYEHKVAKNQGKSKGVWYNLHNKKSVGILNIDERTGMIEIAKPIGVVGAVTPTTNPIVTPMSNIIFALKTCNAIIIAPHPRSKKCSAHAVRLIKEAIAPFNVPEGMVQIIEEPSIEKTQELMGAVDVVVATGGMGMVKSAYSSGKPSFGVGAGNVQVIVDSNIDFEAAAEKIITGRAFDNGIICSGEQSIIYNEADKEAVFTAFRNHGAYFCDEAEGDRARAAIFENGAIAKDVVGQSVAFIAKKANINIPEGTRILVVEARGVGAEDVICKEKMCPVMCALSYKHFEEGVEIARTNLANEGNGHTCAIHSNNQAHIILAGSELTVSRIVVNAPSATTAGGHIQNGLAVTNTLGCGSWGNNSISENFTYKHLLNISRIAPLNSSIHIPDDKEIWEL |  |  | 0.49 ± 0.2 | dodecanoyl-CoA | 
